Measured values taken from US20220010021A1 (Sanofi, published 2022).
Where a chain is given by its changes, count along the chain named.

T1: human beta-Klotho (KLB) (human, UniProt Q86Z14 53-997)
T1 construct: also called human KLB
T1 sequence (looked up): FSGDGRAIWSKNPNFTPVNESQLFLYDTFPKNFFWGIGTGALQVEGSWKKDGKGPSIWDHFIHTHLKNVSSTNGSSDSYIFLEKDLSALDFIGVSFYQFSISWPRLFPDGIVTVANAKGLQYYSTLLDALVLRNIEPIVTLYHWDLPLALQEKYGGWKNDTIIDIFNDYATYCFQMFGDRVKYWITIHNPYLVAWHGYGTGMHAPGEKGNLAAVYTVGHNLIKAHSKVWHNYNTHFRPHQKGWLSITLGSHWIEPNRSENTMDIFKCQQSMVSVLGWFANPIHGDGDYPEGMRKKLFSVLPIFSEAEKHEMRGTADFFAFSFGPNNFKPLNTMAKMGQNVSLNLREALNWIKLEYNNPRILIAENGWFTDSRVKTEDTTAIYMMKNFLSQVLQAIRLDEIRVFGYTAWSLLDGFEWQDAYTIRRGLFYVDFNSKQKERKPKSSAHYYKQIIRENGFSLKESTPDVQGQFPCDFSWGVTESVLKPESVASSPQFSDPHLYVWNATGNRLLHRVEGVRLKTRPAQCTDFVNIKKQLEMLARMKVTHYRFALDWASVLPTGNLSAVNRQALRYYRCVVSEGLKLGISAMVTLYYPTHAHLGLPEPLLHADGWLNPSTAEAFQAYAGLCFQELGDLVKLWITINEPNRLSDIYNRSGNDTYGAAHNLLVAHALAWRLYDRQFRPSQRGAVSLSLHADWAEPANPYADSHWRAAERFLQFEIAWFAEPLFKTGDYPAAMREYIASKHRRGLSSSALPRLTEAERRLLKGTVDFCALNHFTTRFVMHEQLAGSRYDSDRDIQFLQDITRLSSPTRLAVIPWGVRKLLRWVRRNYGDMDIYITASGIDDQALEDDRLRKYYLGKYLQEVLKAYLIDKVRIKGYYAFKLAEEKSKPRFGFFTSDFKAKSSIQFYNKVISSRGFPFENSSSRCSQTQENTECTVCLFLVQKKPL

B1: 16H7 variant, light chain P54C (antibody, human IgG4 S228P, lambda, V domains shown)
VH: not shown
VL: SYVLTQPPSVSVAPGQTARITCGGNNIGSESVHWYQQKPGQAPVLVVYDDSDRCSGIPERFSGSNSGNTATLTISRVEAGDEADYYCQVWDGNSDHVVFGGGTKLTVLG
notes: IgG4 backbone
B2: 16H7 variant, light chain P54V (antibody, human IgG4 S228P, lambda, V domains shown)
VH: not shown
VL: B1 VL with C54V
notes: IgG4 backbone
B3: 16H7 variant, light chain R53T (antibody, human IgG4 S228P, lambda, V domains shown)
VH: not shown
VL: B1 VL with R53T, C54P
notes: IgG4 backbone
B4: 16H7 variant, light chain P54N (antibody, human IgG4 S228P, lambda, V domains shown)
VH: not shown
VL: B1 VL with C54N
notes: IgG4 backbone
B5: 16H7 variant, light chain P54D (antibody, human IgG4 S228P, lambda, V domains shown)
VH: not shown
VL: B1 VL with C54D
notes: IgG4 backbone
B6: 16H7 variant, light chain R53P (antibody, human IgG4 S228P, lambda, V domains shown)
VH: not shown
VL: B1 VL with R53P, C54P
notes: IgG4 backbone
B7: 16H7 variant, light chain R53A (antibody, human IgG4 S228P, lambda, V domains shown)
VH: not shown
VL: B1 VL with R53A, C54P
notes: IgG4 backbone
B8: 16H7 variant, light chain P54H (antibody, human IgG4 S228P, lambda, V domains shown)
VH: not shown
VL: B1 VL with C54H
notes: IgG4 backbone
B9: 16H7 variant, light chain R53L (antibody, human IgG4 S228P, lambda, V domains shown)
VH: not shown
VL: B1 VL with R53L, C54P
notes: IgG4 backbone
B10: 16H7 variant, light chain R53H (antibody, human IgG4 S228P, lambda, V domains shown)
VH: not shown
VL: B1 VL with R53H, C54P
notes: IgG4 backbone
B11: 16H7 variant, light chain P54T (antibody, human IgG4 S228P, lambda, V domains shown)
VH: not shown
VL: B1 VL with C54T
notes: IgG4 backbone
B12: 16H7 variant, light chain P54M (antibody, human IgG4 S228P, lambda, V domains shown)
VH: not shown
VL: B1 VL with C54M
notes: IgG4 backbone
B13: 16H7 variant, light chain S55C (antibody, human IgG4 S228P, lambda, V domains shown)
VH: not shown
VL: B1 VL with C54P, S55C
notes: IgG4 backbone
B14: 16H7 variant, light chain R53S (antibody, human IgG4 S228P, lambda, V domains shown)
VH: not shown
VL: B1 VL with R53S, C54P
notes: IgG4 backbone
B15: 16H7 variant, light chain Q88L (antibody, IgG4, V domains shown)
VH: not shown
VL: B1 VL with C54P, Q88L
notes: IgG4 backbone; copies: 2 + 2
B16: 16H7 variant, light chain R53K (antibody, human IgG4 S228P, lambda, V domains shown)
VH: not shown
VL: B1 VL with R53K, C54P
notes: IgG4 backbone
B17: 16H7 variant, light chain P54K (antibody, human IgG4 S228P, lambda, V domains shown)
VH: not shown
VL: B1 VL with C54K
notes: IgG4 backbone
B18: 16H7 variant, light chain R53Q (antibody, human IgG4 S228P, lambda, V domains shown)
VH: not shown
VL: B1 VL with R53Q, C54P
notes: IgG4 backbone
B19: 16H7 variant, light chain P54F (antibody, human IgG4 S228P, lambda, V domains shown)
VH: not shown
VL: B1 VL with C54F
notes: IgG4 backbone
B20: 16H7 variant, light chain R53I (antibody, human IgG4 S228P, lambda, V domains shown)
VH: not shown
VL: B1 VL with R53I, C54P
notes: IgG4 backbone
B21: 16H7 variant, light chain P54G (antibody, human IgG4 S228P, lambda, V domains shown)
VH: not shown
VL: B1 VL with C54G
notes: IgG4 backbone
B22: 16H7 variant, light chain R53M (antibody, human IgG4 S228P, lambda, V domains shown)
VH: not shown
VL: B1 VL with R53M, C54P
notes: IgG4 backbone
B23: 16H7 variant, light chain P54Y (antibody, human IgG4 S228P, lambda, V domains shown)
VH: not shown
VL: B1 VL with C54Y
notes: IgG4 backbone
B24: 16H7 variant, light chain S51G (antibody, human IgG4 S228P, lambda, V domains shown)
VH: not shown
VL: B1 VL with S51G, C54P
notes: IgG4 backbone
B25: 16H7 variant, light chain Q88M (antibody, IgG4, V domains shown)
VH: not shown
VL: B1 VL with C54P, Q88M
notes: IgG4 backbone; copies: 2 + 2
B26: 16H7 variant, light chain P54R (antibody, human IgG4 S228P, lambda, V domains shown)
VH: not shown
VL: B1 VL with C54R
notes: IgG4 backbone
B27: 16H7 variant, light chain P54S (antibody, human IgG4 S228P, lambda, V domains shown)
VH: not shown
VL: B1 VL with C54S
notes: IgG4 backbone
B28: 16H7 variant, light chain P54L (antibody, human IgG4 S228P, lambda, V domains shown)
VH: not shown
VL: B1 VL with C54L
notes: IgG4 backbone
B29: 16H7 variant, light chain R53C (antibody, human IgG4 S228P, lambda, V domains shown)
VH: not shown
VL: B1 VL with R53C, C54P
notes: IgG4 backbone
B30: 16H7 variant, light chain Q88A (antibody, human IgG4 S228P, lambda, V domains shown)
VH: not shown
VL: B1 VL with C54P, Q88A
notes: IgG4 backbone
B31: 16H7 variant, light chain P54W (antibody, human IgG4 S228P, lambda, V domains shown)
VH: not shown
VL: B1 VL with C54W
notes: IgG4 backbone
B32: 16H7 variant, light chain Q88G (antibody, human IgG4 S228P, lambda, V domains shown)
VH: not shown
VL: B1 VL with C54P, Q88G
notes: IgG4 backbone
B33: 16H7 variant, light chain P54I (antibody, human IgG4 S228P, lambda, V domains shown)
VH: not shown
VL: B1 VL with C54I
notes: IgG4 backbone

Assays:
human beta-Klotho (KLB) = biological target: T1, human beta-Klotho (KLB); experiment: BLI off-rate screen (Octet), Ab captured via Fc;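 also: antibody supernatants applied at 25 µg/mL, dissociation monitored over 1800 s in D-PBS with 0.1% BSA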
[1] = biological target: human FGFR1c/KLB cell surface receptor complex on iLite FGF21 reporter cells (human, UniProt P11362 22-822; Q86Z14 1-1044); experiment: cell-based or functional assay; as to Mean E max (%): reference of the scale not given here
human FGFR1c/KLB cell surface receptor complex on iLite FGF21 reporter cells, sequence (P11362 22-822, chain 1 of 2): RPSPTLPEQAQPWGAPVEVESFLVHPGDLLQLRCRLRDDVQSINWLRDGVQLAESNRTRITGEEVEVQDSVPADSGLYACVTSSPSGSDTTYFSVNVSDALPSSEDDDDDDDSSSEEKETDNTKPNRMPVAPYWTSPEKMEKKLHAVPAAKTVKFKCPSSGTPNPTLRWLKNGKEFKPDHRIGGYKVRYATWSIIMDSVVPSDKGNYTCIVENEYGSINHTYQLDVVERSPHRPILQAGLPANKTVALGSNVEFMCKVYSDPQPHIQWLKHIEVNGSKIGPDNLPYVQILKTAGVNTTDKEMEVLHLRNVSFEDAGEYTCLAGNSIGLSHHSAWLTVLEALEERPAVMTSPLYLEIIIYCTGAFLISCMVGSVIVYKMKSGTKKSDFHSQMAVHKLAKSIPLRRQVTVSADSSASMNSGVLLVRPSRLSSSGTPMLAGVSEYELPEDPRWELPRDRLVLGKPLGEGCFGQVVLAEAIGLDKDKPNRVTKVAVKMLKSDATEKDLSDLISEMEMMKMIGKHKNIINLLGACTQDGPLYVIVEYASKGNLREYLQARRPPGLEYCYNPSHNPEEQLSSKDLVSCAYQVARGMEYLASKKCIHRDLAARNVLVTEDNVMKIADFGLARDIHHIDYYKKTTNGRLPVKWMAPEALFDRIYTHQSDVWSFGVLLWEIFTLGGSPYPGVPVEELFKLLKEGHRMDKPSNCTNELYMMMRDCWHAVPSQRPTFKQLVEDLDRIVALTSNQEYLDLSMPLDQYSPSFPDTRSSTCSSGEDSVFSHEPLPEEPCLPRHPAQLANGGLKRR
human FGFR1c/KLB cell surface receptor complex on iLite FGF21 reporter cells, sequence (Q86Z14 whole entry, chain 2 of 2): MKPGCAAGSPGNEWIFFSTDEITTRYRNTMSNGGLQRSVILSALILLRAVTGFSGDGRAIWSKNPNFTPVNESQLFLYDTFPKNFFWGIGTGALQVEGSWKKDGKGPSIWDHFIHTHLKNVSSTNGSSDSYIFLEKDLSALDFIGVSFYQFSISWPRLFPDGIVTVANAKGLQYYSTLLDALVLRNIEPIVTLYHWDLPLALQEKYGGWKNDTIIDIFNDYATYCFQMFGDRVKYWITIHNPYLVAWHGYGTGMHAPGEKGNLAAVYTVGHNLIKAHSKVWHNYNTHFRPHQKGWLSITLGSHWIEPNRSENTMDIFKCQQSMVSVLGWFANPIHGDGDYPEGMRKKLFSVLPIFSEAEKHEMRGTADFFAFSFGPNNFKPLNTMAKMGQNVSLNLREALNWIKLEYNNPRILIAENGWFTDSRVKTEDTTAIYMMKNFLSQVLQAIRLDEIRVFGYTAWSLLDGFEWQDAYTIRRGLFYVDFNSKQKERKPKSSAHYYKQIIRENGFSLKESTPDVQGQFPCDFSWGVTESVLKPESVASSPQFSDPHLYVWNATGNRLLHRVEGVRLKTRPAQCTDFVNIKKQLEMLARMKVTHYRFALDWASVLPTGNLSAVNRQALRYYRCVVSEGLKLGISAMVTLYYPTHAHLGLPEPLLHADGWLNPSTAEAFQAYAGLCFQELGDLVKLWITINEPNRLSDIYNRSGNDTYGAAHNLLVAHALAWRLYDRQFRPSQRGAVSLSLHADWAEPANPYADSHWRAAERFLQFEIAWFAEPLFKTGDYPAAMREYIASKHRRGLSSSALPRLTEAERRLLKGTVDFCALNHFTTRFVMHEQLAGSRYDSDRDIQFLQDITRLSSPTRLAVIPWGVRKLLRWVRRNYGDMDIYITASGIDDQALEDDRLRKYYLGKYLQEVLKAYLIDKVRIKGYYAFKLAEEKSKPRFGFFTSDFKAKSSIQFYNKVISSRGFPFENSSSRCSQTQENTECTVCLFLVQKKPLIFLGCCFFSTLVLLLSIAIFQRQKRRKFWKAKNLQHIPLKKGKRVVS

| Binder | koff (human beta-Klotho (KLB)) | Mean E max (%) [1] | Mean EC50 [1] |
| --- | --- | --- | --- |
| B1 | 0.00012 s⁻¹ | 100% | 0.116 nM |
| B2 | 4.1e-05 s⁻¹ | 109% | 0.11 nM |
| B3 | 8.7e-05 s⁻¹ | 109% | 0.134 nM |
| B4 | 0.00014 s⁻¹ | 105% | 0.15 nM |
| B5 | 0.00028 s⁻¹ | 96% | 0.115 nM |
| B6 | 0.00028 s⁻¹ | 92% | 0.126 nM |
| B7 | 0.0002 s⁻¹ | 89% | 0.132 nM |
| B8 | 0.00014 s⁻¹ | 100% | 0.111 nM |
| B9 | 2e-05 s⁻¹ | 106% | 0.151 nM |
| B10 | 0.00015 s⁻¹ | 103% | 0.153 nM |
| B11 | 0.00018 s⁻¹ | 108% | 0.113 nM |
| B12 | 3.2e-05 s⁻¹ | 98% | 0.087 nM |
| B13 | 6.3e-05 s⁻¹ | 91% | 0.244 nM |
| B14 | 0.00029 s⁻¹ | 105% | 0.113 nM |
| B15 | 9.9e-05 s⁻¹ | 107% | 0.134 nM |
| B16 | 4e-05 s⁻¹ | 98% | 0.114 nM |
| B17 | 0.00016 s⁻¹ | 100% | 0.131 nM |

| Binder | koff (human beta-Klotho (KLB)) | Mean E max (%) [1] | Mean EC50 [1] |
| --- | --- | --- | --- |
| B18 | 0.00024 s⁻¹ | 100% | 0.131 nM |
| B19 | 0.00012 s⁻¹ | 105% | 0.143 nM |
| B20 | 1.7e-05 s⁻¹ | 100% | 0.151 nM |
| B21 | 5.1e-05 s⁻¹ | 114% | 0.141 nM |
| B22 | 0.00018 s⁻¹ | 95% | 0.099 nM |
| B23 | 8.3e-05 s⁻¹ | 110% | 0.15 nM |
| B24 | 0.0001 s⁻¹ | 104% | 0.129 nM |
| B25 | 9.9e-05 s⁻¹ | 90% | 0.104 nM |
| B26 | 0.00011 s⁻¹ | 104% | 0.111 nM |
| B27 | 7.9e-05 s⁻¹ | 102% | 0.103 nM |
| B28 | 9.6e-05 s⁻¹ | 108% | 0.133 nM |
| B29 | 0.00044 s⁻¹ | 107% | 0.147 nM |
| B30 | 0.00011 s⁻¹ | 108% | 0.133 nM |
| B31 | 0.00017 s⁻¹ | 98% | 0.091 nM |
| B32 | 0.00017 s⁻¹ | 110% | 0.129 nM |
| B33 | 3.5e-05 s⁻¹ | 112% | 0.115 nM |
